Publication PMC3709506, “Comparative cross-linking and mass spectrometry of an intact F-type ATPase suggest a role for phosphorylation” (Nature Communications, 2013)

B2: chloroplast ATP synthase (cATPase) subunit β, untreated enzyme (natural protein, Spinacia oleracea, UniProt P00825 1-498, looked up)
chain: MRINPTTSDPGVSTLEKKNLGRIAQIIGPVLDVAFPPGKMPNIYNALIVKGRDTAGQPMNVTCEVQQLLGNNRVRAVAMSATDGLTRGMEVIDTGAPLSVPVGGATLGRIFNVLGEPVDNLGPVDTRTTSPIHRSAPAFTQLDTKLSIFETGIKVVDLLAPYRRGGKIGLFGGAGVGKTVLIMELINNIAKAHGGVSVFGGVGERTREGNDLYMEMKESGVINEQNIAESKVALVYGQMNEPPGARMRVGLTALTMAEYFRDVNEQDVLLFIDNIFRFVQAGSEVSALLGRMPSAVGYQPTLSTEMGSLQERITSTKEGSITSIQAVYVPADDLTDPAPATTFAHLDATTVLSRGLAAKGIYPAVDPLDSTSTMLQPRIVGEEHYEIAQRVKETLQRYKELQDIIAILGLDELSEEDRLTVARARKIERFLSQPFFVAEVFTGSPGKYVGLAETIRGFQLILSGELDSLPEQAFYLVGNIDEATAKAMNLEMESKLKK
modifications: phosphosites identified at S8, T54
notes: ATP synthase subunit beta, chloroplastic, Spinacia oleracea; K498 is called the carboxy-terminal residue; Three copies stand in the F1 head (α3β3); also called β-subunit; source: purified from spinach leaves as part of the intact F1FO chloroplast ATP synthase
B3: cATPase subunit β, dephosphorylated enzyme (natural protein, Spinacia oleracea, UniProt P00825 1-498, looked up)
chain: MRINPTTSDPGVSTLEKKNLGRIAQIIGPVLDVAFPPGKMPNIYNALIVKGRDTAGQPMNVTCEVQQLLGNNRVRAVAMSATDGLTRGMEVIDTGAPLSVPVGGATLGRIFNVLGEPVDNLGPVDTRTTSPIHRSAPAFTQLDTKLSIFETGIKVVDLLAPYRRGGKIGLFGGAGVGKTVLIMELINNIAKAHGGVSVFGGVGERTREGNDLYMEMKESGVINEQNIAESKVALVYGQMNEPPGARMRVGLTALTMAEYFRDVNEQDVLLFIDNIFRFVQAGSEVSALLGRMPSAVGYQPTLSTEMGSLQERITSTKEGSITSIQAVYVPADDLTDPAPATTFAHLDATTVLSRGLAAKGIYPAVDPLDSTSTMLQPRIVGEEHYEIAQRVKETLQRYKELQDIIAILGLDELSEEDRLTVARARKIERFLSQPFFVAEVFTGSPGKYVGLAETIRGFQLILSGELDSLPEQAFYLVGNIDEATAKAMNLEMESKLKK
notes: ATP synthase subunit beta, chloroplastic, Spinacia oleracea; as m2 but treated with phosphatase; The whole complex was treated with the phosphatase; also called β (dephosphorylated form)
B4: cATPase subunit α, dephosphorylated enzyme (natural protein, Spinacia oleracea, UniProt P06450 1-507, looked up)
chain: MATIRADEISKIIRERIEGYNREVKVVNTGTVLQVGDGIARIHGLDEVMAGELVEFEEGTIGIALNLESNNVGVVLMGDGLMIQEGSSVKATGRIAQIPVSEAYLGRVINALAKPIDGRGEITASESRLIESPAPGIMSRRSVYEPLQTGLIAIDAMIPVGRGQRELIIGDRQTGKTAVATDTILNQQGQNVICVYVAIGQKASSVAQVVTNFQERGAMEYTIVVAETADSPATLQYLAPYTGAALAEYFMYRERHTLIIYDDLSKQAQAYRQMSLLLRRPPGREAYPGDVFYLHSRLLERAAKLSSLLGEGSMTALPIVETQAGDVSAYIPTNVISITDGQIFLSADLFNAGIRPAINVGISVSRVGSAAQIKAMKKVAGKLKLELAQFAELEAFAQFASDLDKATQNQLARGQRLRELLKQPQSAPLTVEEQVMTIYTGTNGYLDSLELDQVRKYLVELRTYVKTNKPEFQEIISSTKTFTEEAEALLKEAIQEQMERFLLQEQA
notes: ATP synthase subunit alpha, chloroplastic, Spinacia oleracea; as m1 but treated with phosphatase; The whole complex was treated; also called α (dephosphorylated form)

Assays:
Conditions in all cases: both partners purified
[1] = biological target: T1, chloroplast ATP synthase (cATPase) subunit α, untreated enzyme (Spinacia oleracea, UniProt P06450 1-507, phosphosites identified at S127, Y196, S369, T442); assay: cross-linking; untreated cATPase, 1:1 mixture of 2.5 mM BS3-d4 and 2.5 mM BS3-d0, 1 h at room temperature; NuPAGE gel, in-gel digestion, LC-MS/MS, MassMatrix search, manual validation
T1 construct: ATP synthase subunit alpha, chloroplastic, Spinacia oleracea; Three copies stand in the F1 head (α3β3); also called α subunit; source: purified from spinach leaves as part of the intact F1FO chloroplast ATP synthase

[2] = biological target: B2; assay: as above
[3] = biological target: B4; assay: cross-linking; comparative: dephosphorylated cATPase (calf intestinal alkaline phosphatase, 37 °C) cross-linked with 2.5 mM deuterated BS3, untreated cATPase with non-deuterated BS3, pooled; areas of extracted ion chromatograms of heavy and light cross-links compared
[4] = biological target: B3; assay: as above
[5] = biological target: T2, chloroplast ATP synthase (cATPase) subunit γ (Spinacia oleracea, UniProt P05435 42-364); assay: cross-linking; untreated cATPase, 1:1 mixture of 2.5 mM BS3-d4 and 2.5 mM BS3-d0, 1 h at room temperature; NuPAGE gel, in-gel digestion, LC-MS/MS, MassMatrix search, manual validation
T2 construct: ATP synthase gamma chain, chloroplastic, Spinacia oleracea; also called γ-subunit; source: purified from spinach leaves as part of the intact F1FO chloroplast ATP synthase
T2 sequence (looked up): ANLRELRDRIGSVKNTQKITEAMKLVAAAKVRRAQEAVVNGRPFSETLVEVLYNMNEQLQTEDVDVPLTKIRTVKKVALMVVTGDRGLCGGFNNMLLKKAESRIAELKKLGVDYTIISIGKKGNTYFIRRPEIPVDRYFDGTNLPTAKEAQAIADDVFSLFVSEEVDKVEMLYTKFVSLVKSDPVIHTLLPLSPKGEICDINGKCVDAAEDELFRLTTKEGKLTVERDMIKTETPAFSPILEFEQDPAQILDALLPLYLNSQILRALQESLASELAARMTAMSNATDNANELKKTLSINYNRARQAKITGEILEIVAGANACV

B1: chloroplast ATP synthase (cATPase) subunit II, untreated enzyme (natural protein, Spinacia oleracea, UniProt P31853 76-222, looked up)
chain: EEIEKASLFDFNLTLPIIMAEFLFLMFALDKIYYTPLGDFMDKRDASIKEQLSGVKDTSSEVKQLEEQANAVMRAARAEISAALNKMKKETQLEVEAKLAEGRKKIEVELQEALGSLEQQKEDTIKSLDSQISALSDDIVKKVLPVS
modifications: phosphosites identified at S122, S211
notes: ATP synthase subunit b' (CF0 subunit II), chloroplastic, Spinacia oleracea; also called stator subunit II; peripheral stalk subunit II; source: purified from spinach leaves as part of the intact F1FO chloroplast ATP synthase
binding result [1]: binds | binding result [2]: binds

B2
binding result [1]: binds

B3
binding result [3]: binds

B4
fold decrease of cross-link intensity against the untreated enzyme (two cross-links, β loops to α C-terminal domain) [4]: > 10 fold | fold decrease of the intensity of the K378-K498 cross-link against the untreated enzyme [4]: ~5 fold

B5: cATPase subunit ε, dephosphorylated enzyme (natural protein, Spinacia oleracea, UniProt P00833 1-134, looked up)
chain: MTLNLCVLTPNRSIWNSEVKEIILSTNSGQIGVLPNHAPTATAVDIGILRIRLNDQWLTLALMGGFARIGNNEITILVNDAERGSDIDPQEAQQTLEIAEANLRKAEGKRQKIEANLALRRARTRVEASNTISS
notes: ATP synthase epsilon chain, chloroplastic, Spinacia oleracea; as m4 but treated with phosphatase; The whole complex was treated with the phosphatase; also called ε (dephosphorylated form)
binding result [3]: binds | binding result [4]: binds

B6: cATPase subunit II, dephosphorylated enzyme (natural protein, Spinacia oleracea, UniProt P31853 76-222, looked up)
chain: EEIEKASLFDFNLTLPIIMAEFLFLMFALDKIYYTPLGDFMDKRDASIKEQLSGVKDTSSEVKQLEEQANAVMRAARAEISAALNKMKKETQLEVEAKLAEGRKKIEVELQEALGSLEQQKEDTIKSLDSQISALSDDIVKKVLPVS
notes: ATP synthase subunit b' (CF0 subunit II), chloroplastic, Spinacia oleracea; as m6 but treated with phosphatase; The whole complex was treated with the phosphatase; also called II (dephosphorylated form)
binding result [3]: binds | binding result [4]: binds

B7: chloroplast ATP synthase (cATPase) subunit ε, untreated enzyme (natural protein, Spinacia oleracea, UniProt P00833 1-134, looked up)
chain: MTLNLCVLTPNRSIWNSEVKEIILSTNSGQIGVLPNHAPTATAVDIGILRIRLNDQWLTLALMGGFARIGNNEITILVNDAERGSDIDPQEAQQTLEIAEANLRKAEGKRQKIEANLALRRARTRVEASNTISS
modifications: phosphosite identified at S13
notes: ATP synthase epsilon chain, chloroplastic, Spinacia oleracea; also called ε-subunit; source: purified from spinach leaves as part of the intact F1FO chloroplast ATP synthase
binding result [1]: binds | binding result [2]: binds | binding result [5]: binds
